ChEMBL document CHEMBL1649076, “Discovery of 5-chloro-N2-[(1S)-1-(5-fluoropyrimidin-2-yl)ethyl]-N4-(5-methyl-1H-pyrazol-3-yl)pyrimidine-2,4-diamine (AZD1480) as a novel inhibitor of the Jak/Stat pathway” (J Med Chem, 2011)

Substrate: Cc1cc(Nc2nc(N[C@H](C)c3ncc(F)cn3)ncc2Cl)n[nH]1
Description: Inhibition of JAK2 using Km ATP concentration

B1: Tyrosine-protein kinase JAK2 (Homo sapiens), O60674 (protein)
chain: MGMACLTMTEMEGTSTSSIYQNGDISGNANSMKQIDPVLQVYLYHSLGKSEADYLTFPSGEYVAEEICIAASKACGITPVYHNMFALMSETERIWYPPNHVFHIDESTRHNVLYRIRFYFPRWYCSGSNRAYRHGISRGAEAPLLDDFVMSYLFAQWRHDFVHGWIKVPVTHETQEECLGMAVLDMMRIAKENDQTPLAIYNSISYKTFLPKCIRAKIQDYHILTRKRIRYRFRRFIQQFSQCKATARNLKLKYLINLETLQSAFYTEKFEVKEPGSGPSGEEIFATIIITGNGGIQWSRGKHKESETLTEQDLQLYCDFPNIIDVSIKQANQEGSNESRVVTIHKQDGKNLEIELSSLREALSFVSLIDGYYRLTADAHHYLCKEVAPPAVLENIQSNCHGPISMDFAISKLKKAGNQTGLYVLRCSPKDFNKYFLTFAVERENVIEYKHCLITKNENEEYNLSGTKKNFSSLKDLLNCYQMETVRSDNIIFQFTKCCPPKPKDKSNLLVFRTNGVSDVPTSPTLQRPTHMNQMVFHKIRNEDLIFNESLGQGTFTKIFKGVRREVGDYGQLHETEVLLKVLDKAHRNYSESFFEAASMMSKLSHKHLVLNYGVCVCGDENILVQEFVKFGSLDTYLKKNKNCINILWKLEVAKQLAWAMHFLEENTLIHGNVCAKNILLIREEDRKTGNPPFIKLSDPGISITVLPKDILQERIPWVPPECIENPKNLNLATDKWSFGTTLWEICSGGDKPLSALDSQRKLQFYEDRHQLPAPKWAELANLINNCMDYEPDFRPSFRAIIRDLNSLFTPDYELLTENDMLPNMRIGALGFSGAFEDRDPTQFEERHLKFLQQLGKGNFGSVEMCRYDPLQDNTGEVVAVKKLQHSTEEHLRDFEREIEILKSLQHDNIVKYKGVCYSAGRRNLKLIMEYLPYGSLRDYLQKHKERIDHIKLLQYTSQICKGMEYLGTKRYIHRDLATRNILVENENRVKIGDFGLTKVLPQDKEYYKVKEPGESPIFWYAPESLTESKFSVASDVWSFGVVLYELFTYIEKSKSPPAEFMRMIGNDKQGQMIVFHLIELLKNNGRLPRPDGCPDEIYMIMTECWNNNVNQRPSFRDLALRVDQIRDNMAG
**Q.** For B1, which Km is on record?
**A.** The Km was 0.031 µM.
